Source: patent US20080207501A1

Target: T1, amylin receptor (nucleus accumbens membranes prepared from rat brain) (rat), P32214
T1 chain 1: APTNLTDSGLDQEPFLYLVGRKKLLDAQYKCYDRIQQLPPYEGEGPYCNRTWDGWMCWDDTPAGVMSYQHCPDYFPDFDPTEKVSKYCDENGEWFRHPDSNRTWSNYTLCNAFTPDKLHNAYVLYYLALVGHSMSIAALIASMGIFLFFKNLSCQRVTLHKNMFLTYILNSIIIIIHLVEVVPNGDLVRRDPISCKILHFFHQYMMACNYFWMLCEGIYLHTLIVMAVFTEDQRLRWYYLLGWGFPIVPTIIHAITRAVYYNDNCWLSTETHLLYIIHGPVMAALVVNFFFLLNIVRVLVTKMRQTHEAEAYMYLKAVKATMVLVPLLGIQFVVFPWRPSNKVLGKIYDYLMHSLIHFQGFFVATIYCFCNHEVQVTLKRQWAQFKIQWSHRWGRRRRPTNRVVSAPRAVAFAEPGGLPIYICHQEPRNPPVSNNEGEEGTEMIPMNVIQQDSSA
T1 chain 2: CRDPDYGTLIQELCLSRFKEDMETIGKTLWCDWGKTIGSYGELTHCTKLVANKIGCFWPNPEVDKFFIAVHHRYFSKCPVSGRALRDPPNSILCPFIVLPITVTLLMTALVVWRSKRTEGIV
Assay: radioligand displacement, 125I-rat amylin, rat nucleus accumbens membranes

IC50: 100 nM
Binder: CGNLSTCMLGTYTQDFNKFHTFPQTAIGVGAP (modifications not checked) [r/h Calcitonin]
